# Measurements: the DeepSol protein solubility set
# Experiment: soluble on expression in E. coli; label from the status in PepcDB or PDB records
row,Sequence,soluble on expression in E. coli
1,SADREGSVRVVGTAHVSSDSVEEVERVIDDEHPDTVAVELDEGRFRQMQGDAPDDLDATDLLKGSMAFQFLAYWLLSYAQRRLGEKFGIEPGADMQAAVDAANTAGADVALVDRDIQVTIQRFWARMSLPEKLRMGGELALGVTDSLTL,not soluble
2,SANKGQQPPYLHLAELTASQFLDIWKHFDADGNGYIEGKELDNFFSQLEIARRGAGVDPSNAAFKGRMTEFMQKFDKNKDGRIEMSELAQILPTEENFLLCFRQFVGSSTEFMAAWRKYDTDRSGFIEANELKGFLSDLLKKANRHYDDQKLQEYTQTILKMFDLNGDGKLGLSEMARLLPVQENFLLKFQGVRLSAEQFNAIFTYYDKDGNGYIDEQELDALLKDLYEKNNKEVDSKSLTGYKQSIMALSDGGKLYRSELEIVLCRDPML,soluble
3,SARLPKLAVFDLDYTLWPFWVDTHVDPPFHKSSDGTVRDRRGQDVRLYPEVPEVLKRLQSLGVPGAAASRTSEIEGANQLLELFDLFRCYLHSHPEWNESSNSKSRVRDICEGPNWAFEVQP,soluble
4,SASTGSQASDIDEIFGFFNDGEPPTKKPRKLLPSLKTKKPRELVLVIGTGISAAVAPQVPALKSWKGLIQALLDAAIDFDLLEDEESKKFQKCLHEDKNLVHVAHDLIQKLSPRTSNVRSTFFKDCLYEVFDDLESKMEDSGKQLLQSVLHLMENGALVLTTNFDNLLELYAADQGKQLESLDLTDEKKVLEWAQEKRKLSVLHIHGVYTNPSGIVLHPAGYQNVLRNTEVMREIQKLYENKSFLFLGCGWTVDDTTFQALFLEAVKHKSDLEHFMLVRRGDVDEFKKLRENMLDKGIKVISYGDDYADLPEYFKRLTCEISTRGTSAGMVREGQLNGSSAAHSEIRGCST,soluble
5,SDEDGLPLMGSGIDLTKVPAIQQKRTVAFLNQFVVHTVQFLNRFSAVCEEKLADLSLRIQQIETTLNILDAKLSSIPGLEDVTVEVSPLNVTAVTNGSHSETTSEQTQQNSTQDSGAQESEAPSENVLTVAKDPRYARYRKMVQVGVPVMAIRDKMISEGLDPELLEKPDAPVPNGESKRAVEESSDSDSSFSD,soluble
6,SDEEKKRRAATARRQHLKSAMLQLAVTEIEKEAAAKEVEKQNYLAEHSPPLSLPGSMQELQELSKKLHAKIDSVDEERYDTEVKLQKTNKELEDLSQKLFDLRGKFKRPPLRRVRMSADAMLRALLGSKHKVNMDLR,soluble
7,SDPRRNFQPGGYDSRNTFTSGSFGPPDFGESDEAELVSVSWNQDYSCFAAGTSHGFRIYNCEPFKETFRRELKDGGFKIVEMLFRSNILALVGGGPNSQYPSNKVLIWDDHQGRCISEFTFRSEIRAVKLRRDRIVVVLEHKIYVYNFMDLRLLHQIENMANPRGLCCLSHHMNTSVLACPGIRRGEVRVEHFGLNMVQIINAHDSNIACMTLTLDGLLLATASTKGTLIRIFNTMDGTRLQEVRRGVDRADIYSIALSPNVQWLAVSSDKGTVHIFSLRVRVIGEDAYSTEHETSSNSLQPLVSPASGANPGSSLSFLRGVLPKYFSSEWSFSQFHVPEVTQYFAAFGAQNTIAIIGLDGSFYRCNFDPVNGGEMTQLEHFHFLKQDSPR,soluble
8,SDQGLIFTNHHCGYGAIQSQSTVDHDYLRDGFVSRTMGEELPIPGLSVKYLRKIVKVTDKVEGQLKGITDEMERLRKAQEVCQELAKKENADENQLCIVEPFYSNNEYFLIVYDVFKDVRMVFAPPSSVGKFGGDTDNWMWPRHTGDFSVFRVYAGADNRPAEYSKDNKPYKPVYFAAVSMQGYKADDYAMTIGFPGSTDRYLTSWGVEDRIENENNPRIEVRGIKQGIWKEAMSADQATRIKYASKYAQSANYWKNSIGMNRGLARLDVIGRKRAEERAFADWIRKNGKSAVYGDVLSSLEKAYKEGAKANREMTYLSETLFGGTEVVRFAQFANALATNPDAHAGILKSLDDKYKDYLPSLDRKVLPAMLDIVRRRIPADKLPDIFKNVIDKKFKGDTKKYADFVFDKSVVPYSDKFHAMLKSMDKEKFAKAIEKDPAVELSKSVIAAARAIQADAMANAYAIEKGKRLFFAGLREMYPGRALPSDANFTMRMSYGSIKGYEPQDGAWYNYHTTGKGVLEKQDPKSDEFAVQENILDLFRTKNYGRYAENGQLHIAFLSNNDITGGNSGSPVFDKNGRLIGLAFDGNWEAMSGDIEFEPDLQRTISVDIRYVLFMIDKWGQCPRLIQELKLI,not soluble
9,SDVLASYSIFQELQLVHDTGYFSALPSLEETWQQTCLELERYLQTEPRRISETFGEDLDCFLHASPPPCIEESFRRLDPLLLPVEAAICEKSSAVDILLSRDKLLSETCLSLQPASSSLDSYTAVNQAQLNAVTSLTPPSSPELSRHLVKTSQTLSAVDGTVTLKLVAKKAALSSVKVRSLISAHGRDVSGVLHEAMSSRGTTGNTQVQSPSNATTATGVFPGLTILPST,soluble
10,SEDGGWNTIESDPAVFTQLLEDLGVKDVKVEEVLQLDAAFLRSLEPVHGLIFLFKWLPDQGSEQELSFSQDVDLFFANQVIQNACGTQALLSVVFNAKDLELGSELAEFKEFTKDFDPQTRGLALSNSETIRSAHNSLSGLQHFSFEFDEKEKSDSFHFISYVPFQGRIYELDGLKKGPICRGSYTAERHWTDVAISEIEKRIERYGEGEIRFNLLAVVRDPLKIWQQELLSYQTALESCSLEVERMSISMQMKEIQTRMEDEKKRRESIRRESNRRRHNMLPFIFHLIKWLHENSDLSFT,soluble
11,SEIESDPNDGHHHHHRRLHLDLSVDERSPRHGISELLQKLRPEWKPDDIQIKVFTEGITNQLMGCYVGSMTRDPVLLVRVYGQMTELFMDREKEMEMFRVLHKHGCGPQLYCSFNNGICYEFVRGVVLDDTLLHQPSVYRLIATEMGKIHSIKSGDSGARSAVTPVLWSRLSQFLNLLQSADDPEQQRSSADGETPSLEIIMREMEELKSHLARINSPVVLCHNDLLTKNVIYNQEEGAVKFIDYEYADFNYQAYDIGNHFNEFAGIDNVDSSLYPSDELQFDWLSAYLESFKRCSTGDSAVTQTEVQELYEQVCQFSLVAHLFWCLWALLQAKHSTIDFDFQRYARARFNYYFEKKREFCGLTPP,soluble
12,SELRPSGDSGSSDVDAEISDGFSPLDTSHRDVADEGSLLRRAEMYQDYMKQVPIPTNRGSLIPFTSWVGLSISMKQLYGQPLHYLTNVLLQRWDQSRFGTDSEEQRLDSIIHPTKAEATIWLVEEIHRLTPSHLHMALLWRSDPMYHSFIDPIFPEK,soluble
13,SEQKSTASGTCGGKPAERGPLAGHMPSSRPHRVDFCWVPGSDPGTFDGSPWLLDRFLAQLGDYMSFHFEHYQDNISRVCEILRRLTGRAQAWAAPYLDGDLPLPDDYELFCQDLKEVVQDPNSFAEYHAVVTCPLPLASSQLPVAPQLPVVRQYLARFLEGLALDMGTAPRSLPAAMATPAVSGSNSVSRSALFEQQLTKESTPGPKEPPVLPSSTCSSKPGPVEPASSQPEEAAPTPVPRLSESANPPAQRPDPAHPGGPKPQKTEEEVLETEGDQEVSLGTPQEVVEAPETPGEPPLSPGF,soluble
14,SEQTEVLKPRTLADLIRILHQLFAGDEVNVEEVQAIMEAYESDPTEWAMYAKFDQYRYTRNLVDQGNGKFNLMILCWGEGHGSSIHDHTNSHCFLKMLQGNLKETLFAWPDKKSNEMVKKSERVLRENQCAYINDSVGLHRVENISHTEPAVSLHLYSPPFDTCHAFDQRTGHKNKVTMTFHSKFGIRTPNATSGSLENN,soluble
15,SESSESKASSGLPIDLRGKRAFIAGIADDNGYGWAVAKSLAAAGAEILVGTWVPALNIFETSLRRGKFDQSRVLPDGSLMEIKKVYPLDAVFDNPEDVPEDVKANKRYAGSSNWTVQEAAECVRQDFGSIDILVHSLANGPEVSKPLLETSRKGYLAAISASSYSFVSLLSHFLPIMNPGGASISLTYIASERIIPGYGGGMSSAKAALESDTRVLAFEAGRKQNIRVNTISAGPLGSRAAKAIGFIDTMIEYSYNNAPIQKTLTADEVGNAAAFLVSPLASAITGATIYVDNGLNSMGVALDSPVFKDLDK,soluble
16,SGEIKVSPDYNWFRGTVPLKKIIVDDDDSKIWSLYDAGPRSIRCPLIFLPPVSGTADVFFRQILALTGWGYRVIALQYPVYWDHLEFCDGFRKLLDHLQLDKVHLFGASLGGFLAQKFAEYTHKSPRVHSLILCNSFSDTSIFNQTWTANSFWLMPAFMLKKIVLGNFSSGPVDPMMADAIDFMVDRLESLGQSELASRLTLNCQNSYVEPHKIRDIPVTIMDVFDQSALSTEAKEEMYKLYPNARRAHLKTGGNFPYLCRSAEVNLYVQIHLLQFHGTKYAAIDPSMVSAEELEVQKGSLGISQEEQ,soluble
